Here are results for three molecules from patent publication US20260234255A1 (Genmab, published 2026).

Positions count from the first letter of the chain named.

In one assay the target is T1, cynomolgus monkey CD3 (cynomolgus monkey, UniProt Q95LI5 22-198).
T1 construct: CD3 endogenously expressed on T cells within cynomolgus monkey PBMCs
The assay is described as follows: flow cytometry, cynomolgus monkey T cells (PBMCs). Here is the method:
Cynomolgus monkey PBMCs (Tebu-Bio, The Netherlands; cat. no. PBMCMFA-10) or purified human T cells were plated in polystyrene 96-well round-bottom plates. T cells were derived from human donor buffy coats (Sanquin, Amsterdam, The Netherlands) and isolated using the RosetteSep human T cell enrichment cocktail (Stemcell Technologies, France, cat. no. 15061) according to manufacturer's instructions. […] After washing twice in staining buffer, cells were incubated in 50 μL secondary R-PE-conjugated goat-anti-human IgG antibody at 4° C. for 30 min (1:400 dilution). After washing twice in staining buffer, T cells were stained for T-cell markers CD3 (1:100; Miltenyi biotec, clone 10D12, conjugated to APC), CD4 (1:50; eBioscience, clone OKT4, conjugated to APC-Cy7), CD8 (1:100; Biolegend, clone RPA-T8, conjugated to AF700) and T-cell activation markers CD69 (1:50; BD Biosciences, clone AB2439, conjugated to FITC), CD25 (1:50; eBioscience, clone BC96, conjugated to PE-Cy7) and CD279/PD1 (1:50; BD Biosciences, clone AEH12.2H7, conjugated to BV605). Single stained samples with Ultracomp beads (5 μL; Invitrogen, cat. no. 01-2222-42) were used for compensation adjustments of the flow cytometer. After 30 min of incubation at 4° C., cells were washed twice with staining buffer, resuspended in 100 μL staining buffer and analyzed using a FACS Fortessa (BD Biosciences). Data were processed using FlowJo (BD Biosciences).
(In flow cytometry, cells or beads pass a laser one at a time.)

The target of assay [1] is T2, human CD30 (human, UniProt P28908 19-595).
T2 sequence: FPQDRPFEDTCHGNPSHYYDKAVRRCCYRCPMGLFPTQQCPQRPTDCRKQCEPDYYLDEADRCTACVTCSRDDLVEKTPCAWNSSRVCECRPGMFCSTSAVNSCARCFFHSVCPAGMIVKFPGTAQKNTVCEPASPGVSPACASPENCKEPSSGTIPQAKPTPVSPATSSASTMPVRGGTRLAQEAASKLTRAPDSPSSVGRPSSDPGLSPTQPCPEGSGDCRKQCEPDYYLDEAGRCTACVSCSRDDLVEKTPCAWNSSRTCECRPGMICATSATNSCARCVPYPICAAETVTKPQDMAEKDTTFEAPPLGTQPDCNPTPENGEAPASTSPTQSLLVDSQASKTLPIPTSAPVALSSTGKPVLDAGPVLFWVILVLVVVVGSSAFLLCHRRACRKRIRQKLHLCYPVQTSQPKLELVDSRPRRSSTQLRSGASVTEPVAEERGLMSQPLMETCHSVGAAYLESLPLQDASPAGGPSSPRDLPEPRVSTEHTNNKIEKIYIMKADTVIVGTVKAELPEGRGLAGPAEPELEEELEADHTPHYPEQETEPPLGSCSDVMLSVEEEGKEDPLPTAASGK
The assay is described as follows: cell-based or functional assay.

For assay [2], the target named is T2, human CD30. Kind of assay: flow cytometry, HDLM-2 cells. As to the method: (§1) Binding of CD3×CD30 bispecific antibodies to two CD30-expressing human tumor cell lines SU-DHL-1 (ALCL; ATCC, cat. no. ACC 356) and HDLM-2 (HL; ATCC, cat. no. CRL-2965) was analyzed […] by flow cytometry.
(§2) Cells (3×10⁴ cells/well) were incubated in polystyrene 96-well round-bottom plates (Greiner bio-one, cat. no. 650180) with serial dilutions of antibodies (range 0.0046 to 10 μg/mL in 3-fold dilution steps) in 50 μL staining buffer at 4° C. for 30 min. After washing twice in staining buffer, cells were incubated with 50 μL secondary antibody at 4° C. for 30 min. […] Next, cells were washed twice in staining buffer, resuspended in 100 μL staining buffer supplemented with TO-PRO-3 iodide (Thermo Fisher Scientific; cat. no. T3605; 1:8000 dilution) and analyzed on a FACSCelesta flow cytometer (BD Biosciences, USA). Live cells were gated based on FSC/SSC and absence of TOPRO-3 staining. Binding curves were analyzed by non-linear regression of log-transformed data (sigmoidal dose-response with variable slope, four parameters) using GraphPad Prism V7.02 software (GraphPad Software, San Diego, CA, USA).

For assay [3], the target named is T2, human CD30. The assay is described as follows: flow cytometry, SU-DHL-1 cells. Here is the method:
as §1, §2

For assay [4], the target named is T3, rhesus monkey (Macaca mulatta) CD30 (rhesus monkey, UniProt P28908 19-595 (human entry)).
T3 construct: also called mmCD30
T3 chain: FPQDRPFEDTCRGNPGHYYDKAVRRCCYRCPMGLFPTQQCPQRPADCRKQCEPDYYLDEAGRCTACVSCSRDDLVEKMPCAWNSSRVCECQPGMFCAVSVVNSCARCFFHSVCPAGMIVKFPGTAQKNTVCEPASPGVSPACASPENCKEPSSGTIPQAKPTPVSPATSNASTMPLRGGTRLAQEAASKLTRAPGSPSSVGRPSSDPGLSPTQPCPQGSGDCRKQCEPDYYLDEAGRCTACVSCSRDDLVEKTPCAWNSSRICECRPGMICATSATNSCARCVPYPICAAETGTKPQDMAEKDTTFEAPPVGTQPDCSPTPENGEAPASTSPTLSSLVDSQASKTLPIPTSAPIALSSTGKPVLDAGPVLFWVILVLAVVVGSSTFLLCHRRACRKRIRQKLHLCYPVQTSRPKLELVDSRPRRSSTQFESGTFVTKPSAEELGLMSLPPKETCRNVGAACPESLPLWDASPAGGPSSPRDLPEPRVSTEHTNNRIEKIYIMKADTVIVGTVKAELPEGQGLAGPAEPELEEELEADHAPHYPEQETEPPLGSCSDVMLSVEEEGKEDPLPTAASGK
Kind of assay: flow cytometry, Expi293F cells transfected with rhesus monkey CD30. As to the method: Cells (3×10⁴ cells/well) were incubated in polystyrene 96-well round-bottom plates (Greiner bio-one, cat. no. 650180) with serial dilutions of antibodies (ranging from 0.005 to 10 μg/mL in 3-fold dilution steps) in 100 μL staining buffer at 4° C. for 30 min. Experiments were performed in technical duplicate. After washing twice in staining buffer, cells were incubated in 50 μL secondary antibody at 4° C. for 30 min. As a secondary antibody, R-PE-conjugated goat-anti-human IgG (Jackson ImmunoResearch, UK; cat. no. 109⁻¹¹⁶-098) diluted 1:400 in staining buffer was used. Cells were washed twice in staining buffer, resuspended in 30 μL staining buffer containing 0.4% EDTA and analyzed on an iQue Screener (Intellicyt Corporation, USA). Binding curves were analyzed using non-linear regression (sigmoidal dose-response with variable slope) using GraphPad Prism V9.0.0 software (GraphPad Software, San Diego, CA, USA).

Broadly, the EC50 (read off the curve) is the concentration that produces a half-maximal response.

T1 sequence (Q95LI5 22-198): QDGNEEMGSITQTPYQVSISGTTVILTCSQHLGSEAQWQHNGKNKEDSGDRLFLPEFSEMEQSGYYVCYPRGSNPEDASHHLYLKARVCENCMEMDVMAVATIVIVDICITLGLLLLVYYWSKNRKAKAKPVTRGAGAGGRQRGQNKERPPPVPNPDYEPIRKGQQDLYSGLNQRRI

B1: bsG1-huCD3-FEALxb12-FEAR (bispecific antibody)
heavy 1: not shown
light 1: not shown
heavy 2: QVQLVQSGAEVKKPGASVKVSCQASGYRFSNFVIHWVRQAPGQRFEWMGWINPYNGNKEFSAKFQDRVTFTADTSANTAYMELRSLRSADTAVYYCARVGPYSWDDSPQDNYYMDVWGKGTTVIVSSASTKGPSVFPLAPSSKSTSGGTAALGCLVKDYFPEPVTVSWNSGALTSGVHTFPAVLQSSGLYSLSSVVTVPSSSLGTQTYICNVNHKPSNTKVDKRVEPKSCDKTHTCPPCPAPEFEGGPSVFLFPPKPKDTLMISRTPEVTCVVVAVSHEDPEVKFNWYVDGVEVHNAKTKPREEQYNSTYRVVSVLTVLHQDWLNGKEYKCKVSNKALPAPIEKTISKAKGQPREPQVYTLPPSREEMTKNQVSLTCLVKGFYPSDIAVEWESNGQPENNYKTTPPVLDSDGSFFLYSRLTVDKSRWQQGNVFSCSVMHEALHNHYTQKSLSLSPG
light 2: EIVLTQSPGTLSLSPGERATFSCRSSHSIRSRRVAWYQHKPGQAPRLVIHGVSNRASGISDRFSGSGSGTDFTLTITRVEPEDFALYYCQVYGASSYTFGQGTKLERKRTVAAPSVFIFPPSDEQLKSGTASVVCLLNNFYPREAKVQWKVDNALQSGNSQESVTEQDSKDSTYSLSSTLTLSKADYEKHKVYACEVTHQGLSSPVTKSFNRGEC
notes: Monovalent CD3 control; The b12 arm is HIV-1 gp120 specific
For B1, the “EC50 (read off the curve)” value in the assay with cynomolgus monkey CD3 was around 0.5 µg/mL.

B2: bsG1-huCD3-FEALxCD30-HRS-3-FEAR (bispecific antibody, human IgG1, kappa, lambda)
heavy 1: not shown
light 1: not shown
heavy 2: QVQLQQSGAELARPGASVKMSCKASGYTFTTYTIHWVRQRPGHDLEWIGYINPSSGYSDYNQNFKGKTTLTADKSSNTAYMQLNSLTSEDSAVYYCARRADYGNYEYTWFAYWGQGTTVTVSSASTKGPSVFPLAPSSKSTSGGTAALGCLVKDYFPEPVTVSWNSGALTSGVHTFPAVLQSSGLYSLSSVVTVPSSSLGTQTYICNVNHKPSNTKVDKRVEPKSCDKTHTCPPCPAPEFEGGPSVFLFPPKPKDTLMISRTPEVTCVVVAVSHEDPEVKFNWYVDGVEVHNAKTKPREEQYNSTYRVVSVLTVLHQDWLNGKEYKCKVSNKALPAPIEKTISKAKGQPREPQVYTLPPSREEMTKNQVSLTCLVKGFYPSDIAVEWESNGQPENNYKTTPPVLDSDGSFFLYSRLTVDKSRWQQGNVFSCSVMHEALHNHYTQKSLSLSPG
light 2: DIVMTQSPKFMSTSVGDRVTVTCKASQNVGTNVAWFQQKPGQSPKVLIYSASYRYSGVPDRFTGSGSGTDFTLTISNVQSEDLAEYFCQQYHTYPLTFGGGTKLEINRTVAAPSVFIFPPSDEQLKSGTASVVCLLNNFYPREAKVQWKVDNALQSGNSQESVTEQDSKDSTYSLSSTLTLSKADYEKHKVYACEVTHQGLSSPVTKSFNRGEC
notes: Bispecific IgG1 made by controlled Fab-arm exchange
In the case of B2, in the assay with human CD30 [1], the “T-cell mediated cytotoxicity of Karpas-299 cells, IC50 average” value stood at 0.068 µg/mL. Besides, the “T-cell mediated cytotoxicity of Karpas-299 cells, maximum lysis average” value in the assay with human CD30 [1] came out at 47.5%. Also, the figures for the “EC50 (read off the curve)” value (with human CD30 [2]; in the assay with human CD30 [3]; in assay [4]) were around 0.1 µg/mL, around 0.2 µg/mL and around 0.3 µg/mL, respectively.

B3: bsG1-huCD3-FEALxCD30-T105-FEAR (bispecific antibody, human IgG1, kappa, lambda)
heavy 1: not shown
light 1: not shown
heavy 2: not shown
light 2: B2 light 2 with P8Q, T20S, G30N, F36Y, K45E, V46A, H92N, T93S, G100S, N107K
notes: Bispecific IgG1 made by controlled Fab-arm exchange; also called bsIgG1-huCD3-FEALxCD30-T105-FEAR
On to B3, for which the “T-cell mediated cytotoxicity of Karpas-299 cells, IC50 average” value in the assay with human CD30 [1] was found to be 0.042 µg/mL. For the same molecule, in the assay with human CD30 [1], the “T-cell mediated cytotoxicity of Karpas-299 cells, maximum lysis average” value turned out to be 52.6%. Besides, the results for the “EC50 (read off the curve)” value (with human CD30 [2]; with human CD30 [3]; in assay [4]) were around 0.4 µg/mL, around 0.3 µg/mL and around 0.3 µg/mL, respectively.
